The supplement of paper PMC5998384

Legend:
[1] = tested on: HeLa Kyoto; assay: solubility in G1/S (NP-40 vs SDS abundance) (log2 ratio); higher = more soluble; conditions: cell cycle stage: G1/S
[2] = tested on: HeLa Kyoto; assay: solubility change mitosis vs G1/S (difference of NP-40 vs SDS log2 ratios) (log2 ratio difference); higher = more soluble in mitosis
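For solubility change mitosis vs G1/S (difference of NP-40 vs SDS log2 ratios) in this document: synchronized HeLa Kyoto cells (double thymidine block for G1/S, nocodazole release for mitosis), protein amounts in NP-40 versus SDS lysates quantified by mass spectrometry, three biological replicates.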
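For solubility in G1/S (NP-40 vs SDS abundance) in this document: HeLa Kyoto cells arrested at G1/S by double thymidine block, proteins quantified by TMT10plex mass spectrometry in mild NP-40 versus SDS extracts, three biological replicates.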

CLK3, sequence (chain, as listed by the source): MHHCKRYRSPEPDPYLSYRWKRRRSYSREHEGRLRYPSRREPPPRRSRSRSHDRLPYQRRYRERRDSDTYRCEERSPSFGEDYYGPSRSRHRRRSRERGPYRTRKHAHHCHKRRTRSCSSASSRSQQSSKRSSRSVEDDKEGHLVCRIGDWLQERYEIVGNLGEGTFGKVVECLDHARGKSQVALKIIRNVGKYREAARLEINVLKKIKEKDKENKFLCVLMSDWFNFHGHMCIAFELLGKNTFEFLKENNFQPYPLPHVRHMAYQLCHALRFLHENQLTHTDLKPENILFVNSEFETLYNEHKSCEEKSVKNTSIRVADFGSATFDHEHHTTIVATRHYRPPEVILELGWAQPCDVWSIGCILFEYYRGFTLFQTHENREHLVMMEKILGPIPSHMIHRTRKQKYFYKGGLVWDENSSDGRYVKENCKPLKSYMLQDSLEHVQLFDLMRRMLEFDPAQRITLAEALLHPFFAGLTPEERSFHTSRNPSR

Row | Substance | solubility in G1/S (log2) [1] | solubility change mitosis (log2) [2]
1 | BCORL1 | -0.267 | 0.348
2 | MDQFGDILEGEVDHSFFDSDFEEGKKCETNSVFDKQNDDPKERIDKDTKNVNSNTGMQTTENYLTEKGNERNVKFPPEHPVENDVTQTVSSFSLPASSRSKKLCDVTTGLKIHVSIPNRIPKIVKEGEDDYYTDGEESSDDGKKYHVKSKSAKPSTNVKKSIRKKYCKVSSSSSSSLSSSSSGSGTDCLDAGSDSHLSDSSPSSKSSKKHVSGITLLSPKHKYKSGIKSTETQPSSTTPKCGHYPEESEDTVTDVSPLSTPDISPLQSFELGIANDQKVKIKKQENVSQEIYEDVEDLKNNSKYLKAAKKGKEKHEPDVSSKSSSVLDSSLDHRHKQKVLHDTMDLNHLLKAFLQLDKKGPQKHHFDQPSVAPGKNYSFTREEVRQIDRENQRLLKELSRQAEKPGSKSTIPRSADHPPKLYHSALNRQKEQQRIERENLALLKRLEAVKPTVGMKRSEQLMDYHRNMGYLNSSPLSRRARSTLGQYSPLRASRTSSATSGLSCRSERSAVDPSSGHPRRRPKPPNVRTAWL [CFAP97] | 0.0651 | -0.039
3 | MESRDHNNPQEGPTSSSGRRAAVEDNHLLIKAVQNEDVDLVQQLLEGGANVNFQEEEGGWTPLHNAVQMSREDIVELLLRHGADPVLRKKNGATPFILAAIAGSVKLLKLFLSKGADVNECDFYGFTAFMEAAVYGKVKALKFLYKRGANVNLRRKTKEDQERLRKGGATALMDAAEKGHVEVLKILLDEMGADVNACDNMGRNALIHALLSSDDSDVEAITHLLLDHGADVNVRGERGKTPLILAVEKKHLGLVQRLLEQEHIEINDTDSDGKTALLLAVELKLKKIAELLCKRGASTDCGDLVMTARRNYDHSLVKVLLSHGAKEDFHPPAEDWKPQSSHWGAALKDLHRIYRPMIGKLKFFIDEKYKIADTSEGGIYLGFYEKQEVAVKTFCEGSPRAQREVSCLQSSRENSHLVTFYGSESHRGHLFVCVTLCEQTLEACLDVHRGEDVENEEDEFARNVLSSIFKAVQELHLSCGYTHQDLQPQNILIDSKKAAHLADFDKSIKWAGDPQEVKRDLEDLGRLVLYVVKKGSISFEDLKAQSNEEVVQLSPDEETKDLIHRLFHPGEHVRDCLSDLLGHPFFWTWESRYRTLRNVGNESDIKTRKSESEILRLLQPGPSEHSKSFDKWTTKINECVMKKMNKFYEKRGNFYQNTVGDLLKFIRNLGEHIDEEKHKKMKLKIGDPSLYFQKTFPDLVIYVYTKLQNTEYRKHFPQTHSPNKPQCDGAGGASGLASPGC [RNASEL] | -0.104 | -0.0377
4 | MRAPIPEPKPGDLIEIFRPFYRHWAIYVGDGYVVHLAPPSEVAGAGAASVMSALTDKAIVKKELLYDVAGSDKYQVNNKHDDKYSPLPCSKIIQRAEELVGQEVLYKLTSENCEHFVNELRYGVARSDQVRDVIIAASVAGMGLAAMSLIGVMFSRNKRQKQ [PLA2G16] | 0.0787 | -0.137
5 | MGFWCRMSENQEQEEVITVRVQDPRVQNEGSWNSYVDYKIFLHTNSKAFTAKTSCVRRRYREFVWLRKQLQRNAGLVPVPELPGKSTFFGTSDEFIEKRRQGLQHFLEKVLQSVVLLSDSQLHLFLQSQLSVPEIEACVQGRSTMTVSDAILRYAMSNCGWAQEERQSSSHLAKGDQPKSCCFLPRSGRRSSPSPPPSEEKDHLEVWAPVVDSEVPSLESPTLPPLSSPLCCDFGRPKEGTSTLQSVRRAVGGDHAVPLDPGQLETVLEK [SNX11] | 0.38 | -0.17
6 | CLK3 | -1.26 | 0.423
7 | MSKQQPTQFINPETPGYVGFANLPNQVHRKSVKKGFEFTLMVVGESGLGKSTLINSLFLTDLYPERVIPGAAEKIERTVQIEASTVEIEERGVKLRLTVVDTPGYGDAINCRDCFKTIISYIDEQFERYLHDESGLNRRHIIDNRVHCCFYFISPFGHGLKPLDVAFMKAIHNKVNIVPVIAKADTLTLKERERLKKRILDEIEEHNIKIYHLPDAESDEDEDFKEQTRLLKASIPFSVVGSNQLIEAKGKKVRGRLYPWGVVEVENPEHNDFLKLRTMLITHMQDLQEVTQDLHYENFRSERLKRGGRKVENEDMNKDQILLEKEAELRRMQEMIARMQAQMQMQMQGGDGDGGALGHHV [SEPT2] | 0.276 | -0.0125
